# Assay results reported in patent publication US20260232827A1 (Zymeworks, published 2026).
# T1: human sodium-dependent phosphate transporter 2B (NaPi2b) (human, UniProt O95436 1-690)
# T1 construct: UniProt ID is given as 095436 [sic]; also called hNaPi2b; Hu NaPi2b
# T1 sequence: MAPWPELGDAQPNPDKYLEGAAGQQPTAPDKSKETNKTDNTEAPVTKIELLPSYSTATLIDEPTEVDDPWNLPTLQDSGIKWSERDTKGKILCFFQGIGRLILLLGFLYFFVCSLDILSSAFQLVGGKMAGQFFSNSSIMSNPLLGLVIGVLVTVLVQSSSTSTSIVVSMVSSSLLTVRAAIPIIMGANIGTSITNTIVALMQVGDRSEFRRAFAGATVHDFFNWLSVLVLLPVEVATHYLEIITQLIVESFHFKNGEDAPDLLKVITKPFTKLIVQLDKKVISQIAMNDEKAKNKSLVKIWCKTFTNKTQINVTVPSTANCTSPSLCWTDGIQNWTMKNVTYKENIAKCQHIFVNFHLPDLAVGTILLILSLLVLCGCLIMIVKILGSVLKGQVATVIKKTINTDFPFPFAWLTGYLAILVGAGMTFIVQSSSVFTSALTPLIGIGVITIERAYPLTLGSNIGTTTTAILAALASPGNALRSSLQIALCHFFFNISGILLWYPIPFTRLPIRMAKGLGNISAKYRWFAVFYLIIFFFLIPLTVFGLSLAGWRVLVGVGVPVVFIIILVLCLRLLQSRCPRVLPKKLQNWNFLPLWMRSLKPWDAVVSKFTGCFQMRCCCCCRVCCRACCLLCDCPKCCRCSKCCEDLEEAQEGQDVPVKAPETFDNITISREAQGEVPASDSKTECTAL
# T2: Full length human NaPi2b (sodium-dependent phosphate transporter 2B, SLC34A2) (human, UniProt O95436 1-690)
# T2 construct: also called huNaPi2b; CL_#13432
# T2 sequence: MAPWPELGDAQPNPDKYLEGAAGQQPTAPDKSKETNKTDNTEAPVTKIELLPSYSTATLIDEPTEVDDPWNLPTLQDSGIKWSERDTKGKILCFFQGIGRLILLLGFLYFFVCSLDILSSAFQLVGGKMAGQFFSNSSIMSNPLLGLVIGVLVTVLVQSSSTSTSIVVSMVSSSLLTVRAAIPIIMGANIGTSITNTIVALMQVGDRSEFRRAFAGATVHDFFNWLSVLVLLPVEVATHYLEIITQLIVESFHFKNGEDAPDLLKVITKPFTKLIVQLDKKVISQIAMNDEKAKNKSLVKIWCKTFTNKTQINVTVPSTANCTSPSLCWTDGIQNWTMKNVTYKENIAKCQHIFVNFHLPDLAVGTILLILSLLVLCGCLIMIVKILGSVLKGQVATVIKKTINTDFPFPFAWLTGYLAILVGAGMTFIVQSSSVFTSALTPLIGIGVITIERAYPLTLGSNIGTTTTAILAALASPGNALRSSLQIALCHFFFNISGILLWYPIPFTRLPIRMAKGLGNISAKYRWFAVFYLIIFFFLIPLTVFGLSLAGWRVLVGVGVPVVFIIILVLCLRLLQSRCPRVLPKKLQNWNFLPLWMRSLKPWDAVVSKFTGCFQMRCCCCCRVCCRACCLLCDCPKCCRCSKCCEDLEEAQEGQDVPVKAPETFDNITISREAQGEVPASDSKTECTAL
# T3: Construct 6 (human NaPi2b del 317-333) (human, UniProt O95436 1-690)
# T3 construct: also called CL_#29919
# T3 sequence: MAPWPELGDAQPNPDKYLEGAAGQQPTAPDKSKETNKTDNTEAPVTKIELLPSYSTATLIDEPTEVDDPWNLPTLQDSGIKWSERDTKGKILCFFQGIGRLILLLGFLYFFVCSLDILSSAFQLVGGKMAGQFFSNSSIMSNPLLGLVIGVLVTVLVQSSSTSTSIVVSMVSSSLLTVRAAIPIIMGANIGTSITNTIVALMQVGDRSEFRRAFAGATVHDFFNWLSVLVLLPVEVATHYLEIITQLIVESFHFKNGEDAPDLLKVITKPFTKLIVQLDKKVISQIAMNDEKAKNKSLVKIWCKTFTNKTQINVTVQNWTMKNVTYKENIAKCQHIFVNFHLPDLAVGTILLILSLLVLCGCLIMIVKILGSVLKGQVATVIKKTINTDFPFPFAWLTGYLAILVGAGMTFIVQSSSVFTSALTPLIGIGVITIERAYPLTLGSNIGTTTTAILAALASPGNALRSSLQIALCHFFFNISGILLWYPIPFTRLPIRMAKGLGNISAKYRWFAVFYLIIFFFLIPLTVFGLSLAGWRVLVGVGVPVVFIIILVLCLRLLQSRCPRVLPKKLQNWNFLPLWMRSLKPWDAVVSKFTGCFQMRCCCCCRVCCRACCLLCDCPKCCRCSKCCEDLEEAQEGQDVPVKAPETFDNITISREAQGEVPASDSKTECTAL
# T4: cynomolgus monkey NaPi2b (cynomolgus monkey, UniProt O95436 1-690 (human entry))
# T4 construct: also called Cyno NaPi2b; Cy NaPi2b
# T4 chain: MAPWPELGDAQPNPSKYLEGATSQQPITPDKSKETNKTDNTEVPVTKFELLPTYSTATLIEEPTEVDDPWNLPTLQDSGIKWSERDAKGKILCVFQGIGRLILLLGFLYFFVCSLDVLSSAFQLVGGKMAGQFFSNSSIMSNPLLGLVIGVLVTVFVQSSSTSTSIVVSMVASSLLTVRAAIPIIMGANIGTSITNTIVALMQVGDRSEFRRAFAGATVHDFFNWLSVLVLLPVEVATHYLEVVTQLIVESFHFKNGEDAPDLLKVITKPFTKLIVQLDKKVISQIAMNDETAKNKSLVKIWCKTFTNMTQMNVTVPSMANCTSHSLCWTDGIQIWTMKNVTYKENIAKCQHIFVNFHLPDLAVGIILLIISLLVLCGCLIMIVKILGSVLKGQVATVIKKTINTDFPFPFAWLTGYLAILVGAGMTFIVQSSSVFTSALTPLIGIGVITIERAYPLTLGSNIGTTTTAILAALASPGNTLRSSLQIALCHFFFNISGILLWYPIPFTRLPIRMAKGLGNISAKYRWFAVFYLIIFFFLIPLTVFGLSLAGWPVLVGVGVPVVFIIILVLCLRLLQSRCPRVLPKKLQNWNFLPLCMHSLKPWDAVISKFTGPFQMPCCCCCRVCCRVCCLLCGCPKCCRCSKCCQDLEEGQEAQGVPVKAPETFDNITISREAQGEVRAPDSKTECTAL
# Assays:
# [1] = target: T1, human sodium-dependent phosphate …; assay: flow cytometry, HEK293-6e cells transfected with human NaPi2b; apparent Kd
# [2] = target: T2, Full length human NaPi2b …; assay: flow cytometry, transfected HEK293-6e cells, antibody 200 nM;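 also: cells incubated with antibody for 24 h at 4 °C, background taken as average MFI of unstained cells without primary antibody, at least 1,000 events per well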
# [3] = target: T5, Construct 5 (chimeric human NaPi2b, swap in NaPi2a in 304-348) (human); assay: as above
# T5 construct: also called CL_#13436
# [4] = target: T3, Construct 6 (human NaPi2b del 317-333); assay: as above
# cynomolgus monkey NaPi2b = target: T4, cynomolgus monkey NaPi2b; assay: flow cytometry on HEK293-6e cells transfected with cynomolgus monkey NaPi2b, 24 h at 4 C, anti-human IgG Fc AF647
Binder,Kd [1] [nM],Background-Subtracted AF647 Mean Fluorescence Intensity [2] [MFI],Background-Subtracted AF647 Mean Fluorescence Intensity [3] [MFI],Background-Subtracted AF647 Mean Fluorescence Intensity [4] [MFI],EC50 (read off the curve) (cynomolgus monkey NaPi2b) [nM]
"v18992 (MX35), reference anti-NaPi2b antibody (antibody, human IgG1, kappa) heavy 1: GQVQLVQSGAEVVKPGASVKMSCKASGYTFTGYNIHWVKQAPGQGLEWIGAIYPGNGDTSYKQKFRGRATLTADTSTSTVYMELSSLRSEDSAVYYCARGETARATFAYWGQGTLVTVSSASTKGPSVFPLAPSSKSTSGGTAALGCLVKDYFPEPVTVSWNSGALTSGVHTFPAVLQSSGLYSLSSVVTVPSSSLGTQTYICNVNHKPSNTKVDKKVEPKSCDKTHTCPPCPAPELLGGPSVFLFPPKPKDTLMISRTPEVTCVVVDVSHEDPEVKFNWYVDGVEVHNAKTKPREEQYNSTYRVVSVLTVLHQDWLNGKEYKCKVSNKALPAPIEKTISKAKGQPREPQVYVYPPSRDELTKNQVSLTCLVKGFYPSDIAVEWESNGQPENNYKTTPPVLDSDGSFALVSKLTVDKSRWQQGNVFSCSVMHEALHNHYTQKSLSLSPG heavy 2: not shown light: GDIQMTQSPSSLSASVGDRVTITCSASQDIGNFLNWYQQKPGKTVKVLIYYTSSLYSGVPSRFSGSGSGTDYTLTISSLQPEDFATYYCQQYSKLPLTFGQGTKLELKRTVAAPSVFIFPPSDEQLKSGTASVVCLLNNFYPREAKVQWKVDNALQSGNSQESVTEQDSKDSTYSLSSTLTLSKADYEKHKVYACEVTHQGLSSPVTKSFNRGEC",1.98,,,,
"MX35 (v18992), reference anti-NaPi2b antibody (antibody, human IgG1, kappa) heavy 1: GQVQLVQSGAEVVKPGASVKMSCKASGYTFTGYNIHWVKQAPGQGLEWIGAIYPGNGDTSYKQKFRGRATLTADTSTSTVYMELSSLRSEDSAVYYCARGETARATFAYWGQGTLVTVSSASTKGPSVFPLAPSSKSTSGGTAALGCLVKDYFPEPVTVSWNSGALTSGVHTFPAVLQSSGLYSLSSVVTVPSSSLGTQTYICNVNHKPSNTKVDKKVEPKSCDKTHTCPPCPAPELLGGPSVFLFPPKPKDTLMISRTPEVTCVVVDVSHEDPEVKFNWYVDGVEVHNAKTKPREEQYNSTYRVVSVLTVLHQDWLNGKEYKCKVSNKALPAPIEKTISKAKGQPREPQVYVYPPSRDELTKNQVSLTCLVKGFYPSDIAVEWESNGQPENNYKTTPPVLDSDGSFALVSKLTVDKSRWQQGNVFSCSVMHEALHNHYTQKSLSLSPG heavy 2: not shown light: GDIQMTQSPSSLSASVGDRVTITCSASQDIGNFLNWYQQKPGKTVKVLIYYTSSLYSGVPSRFSGSGSGTDYTLTISSLQPEDFATYYCQQYSKLPLTFGQGTKLELKRTVAAPSVFIFPPSDEQLKSGTASVVCLLNNFYPREAKVQWKVDNALQSGNSQESVTEQDSKDSTYSLSSTLTLSKADYEKHKVYACEVTHQGLSSPVTKSFNRGEC",,979,219,-2,
"v38591 (humanized anti-NaPi2b antibody, wild-type Fc) (antibody, human IgG1, kappa, also called v38591 Wild-type; H1L2) heavy: not shown light: DVQMTQSPSSLSASVGDRVTITCRASQDVYSYLNWYQQKPGKAVKLLIYYTSRLQSGVPSRFSGSGSGTDYTLTISSLQPEDFATYYCQQYNIFPWTFGQGTKLEIKRTVAAPSVFIFPPSDEQLKSGTASVVCLLNNFYPREAKVQWKVDNALQSGNSQESVTEQDSKDSTYSLSSTLTLSKADYEKHKVYACEVTHQGLSSPVTKSFNRGEC",,,,,~0.3
"v38591 (humanized anti-NaPi2b antibody, H1L2, wild-type Fc, heavy chains with C-terminal lysine) (antibody, human IgG1, kappa, Full-size human IgG1/kappa antibody; also called v38591 (wild-type Fc)) heavy: not shown light: DVQMTQSPSSLSASVGDRVTITCRASQDVYSYLNWYQQKPGKAVKLLIYYTSRLQSGVPSRFSGSGSGTDYTLTISSLQPEDFATYYCQQYNIFPWTFGQGTKLEIKRTVAAPSVFIFPPSDEQLKSGTASVVCLLNNFYPREAKVQWKVDNALQSGNSQESVTEQDSKDSTYSLSSTLTLSKADYEKHKVYACEVTHQGLSSPVTKSFNRGEC",,989,204,210,
"palivizumab (v21995), anti-RSV antibody, negative control (antibody, human IgG1, kappa, V domains shown) VH: QVTLRESGPALVKPTQTLTLTCTFSGFSLSTSGMSVGWIRQPPGKALEWLADIWWDDKKDYNPSLKSRLTISKDTSKNQVVLKVTNMDPADTATYYCARSMITNWYFDVWGAGTTVTVSS VL: DIQMTQSPSTLSASVGDRVTITCKSQLSVGYMHWYQQKPGKAPKLLIYDTSKLASGVPSRFSGSGSGTEFTLTISSLQPDDFATYYCFQGSGYPFTFGGGTKLEIKR",,19,40,2,
"v18993 (lifastuzumab), reference anti-NaPi2b antibody (antibody, human IgG1, kappa) heavy 1: GEVQLVESGGGLVQPGGSLRLSCAASGFSFSDFAMSWVRQAPGKGLEWVATIGRVAFHTYYPDSMKGRFTISRDNSKNTLYLQMNSLRAEDTAVYYCARHRGFDVGHFDFWGQGTLVTVSSASTKGPSVFPLAPSSKSTSGGTAALGCLVKDYFPEPVTVSWNSGALTSGVHTFPAVLQSSGLYSLSSVVTVPSSSLGTQTYICNVNHKPSNTKVDKKVEPKSCDKTHTCPPCPAPELLGGPSVFLFPPKPKDTLMISRTPEVTCVVVDVSHEDPEVKFNWYVDGVEVHNAKTKPREEQYNSTYRVVSVLTVLHQDWLNGKEYKCKVSNKALPAPIEKTISKAKGQPREPQVYVYPPSRDELTKNQVSLTCLVKGFYPSDIAVEWESNGQPENNYKTTPPVLDSDGSFALVSKLTVDKSRWQQGNVFSCSVMHEALHNHYTQKSLSLSPG heavy 2: not shown light: GDIQMTQSPSSLSASVGDRVTITCRSSETLVHSSGNTYLEWYQQKPGKAPKLLIYRVSNRFSGVPSRFSGSGSGTDFTLTISSLQPEDFATYYCFQGSFNPLTFGQGTKVEIKRTVAAPSVFIFPPSDEQLKSGTASVVCLLNNFYPREAKVQWKVDNALQSGNSQESVTEQDSKDSTYSLSSTLTLSKADYEKHKVYACEVTHQGLSSPVTKSFNRGEC",1.22,,,,~5
"lifastuzumab (v18993), reference anti-NaPi2b antibody (antibody, human IgG1, kappa) heavy 1: GEVQLVESGGGLVQPGGSLRLSCAASGFSFSDFAMSWVRQAPGKGLEWVATIGRVAFHTYYPDSMKGRFTISRDNSKNTLYLQMNSLRAEDTAVYYCARHRGFDVGHFDFWGQGTLVTVSSASTKGPSVFPLAPSSKSTSGGTAALGCLVKDYFPEPVTVSWNSGALTSGVHTFPAVLQSSGLYSLSSVVTVPSSSLGTQTYICNVNHKPSNTKVDKKVEPKSCDKTHTCPPCPAPELLGGPSVFLFPPKPKDTLMISRTPEVTCVVVDVSHEDPEVKFNWYVDGVEVHNAKTKPREEQYNSTYRVVSVLTVLHQDWLNGKEYKCKVSNKALPAPIEKTISKAKGQPREPQVYVYPPSRDELTKNQVSLTCLVKGFYPSDIAVEWESNGQPENNYKTTPPVLDSDGSFALVSKLTVDKSRWQQGNVFSCSVMHEALHNHYTQKSLSLSPG heavy 2: not shown light: GDIQMTQSPSSLSASVGDRVTITCRSSETLVHSSGNTYLEWYQQKPGKAPKLLIYRVSNRFSGVPSRFSGSGSGTDFTLTISSLQPEDFATYYCFQGSFNPLTFGQGTKVEIKRTVAAPSVFIFPPSDEQLKSGTASVVCLLNNFYPREAKVQWKVDNALQSGNSQESVTEQDSKDSTYSLSSTLTLSKADYEKHKVYACEVTHQGLSSPVTKSFNRGEC",,893,302,183,
